# According to article PMC2891831, “Insight into the Mechanisms of Adenovirus Capsid Disassembly from Studies of Defensin Neutralization” (PLoS Pathogens, 2010):
# “Also recorded” adds a separate entry of the source.
# Columns and labels:
# [1] = system: Ad5.F35 capsid (hexon, penton base, fiber); assay: CryoEM difference map analysis of Ad5.F35+HD5; format: binding, human adenovirus; conditions: 20 µM HD5, 160 µg/ml Ad5.F35, cryoEM difference map, 12 Å resolution
# Procedure: To obtain structural insight into the mechanism of α-defensin-mediated neutralization of HAdV infection, we studied a complex of Ad5.F35 (Ad35F) and HD5 by cryoelectron microscopy (cryoEM). This chimeric virus construct was chosen because of its short fiber and the availability of a cryoEM structure of Ad5.F35 in the absence of defensin for comparison, [31]. […] Ad5.F35 was incubated with a saturating concentration of HD5 (20 µM) then applied to grids and flash frozen for cryoEM. A dataset of 2,611 cryoEM particle images of the Ad5.F35+HD5 complex was collected and processed as performed earlier for Ad5.F35 [31]. The resolution of the icosahedral portion of the Ad5.F35+HD5 reconstruction is estimated as 12 Å by the FSC 0.5 threshold criterion, compared to 6.9 Å for the Ad5.F35 reconstruction. Both cryoEM structures are shown filtered to 12 Å resolution in Figure 4A. The most noticeable difference between the two structures is the presence of more density on top of penton base and around the fiber shaft in the Ad5.F35+HD5 structure. In addition, while the fiber knob is visible in the Ad5.F35 structure, it is only weakly reconstructed in the Ad5.F35+HD5 structure (Figure 4A inset). […]
# HAdV species C = assay: Infection assay (hexon staining), HAdV species C; format: cell-based, human adenovirus; conditions: 15 µM HD5, A549 cells, hexon staining at ~48 h, vs. no defensin
# Procedure: To determine whether sensitivity to α-defensins is a general property of HAdVs, serotypes representative of HAdV species A–F were tested for infectivity in the presence of 15 µM HD5 or HNP1 (Figure 1). Wild type HAdVs rather than vectors were used for these studies, and infectivity was assessed by staining for hexon production. […] These studies indicate that sensitivity to α-defensins is species specific. In addition, particular HAdV serotypes are not equally sensitive to all defensins, indicating defensin sequence specificity as well.
# Figure 1 Sensitivity to neutralization by alpha-defensins is AdV species specific. HAdVs were incubated with 15 µM HD5 (A) or HNP1 (B) and assessed for infectivity on A549 cells. Data are the mean of the percent infectivity compared to control cells infected with each virus in the absence of defensin for at least three independent experiments ± SD. The upper limit for quantification of this assay is 200%. […]
# Prior to use in this assay, each virus stock was titrated on A549 cells. […] In parallel, wells were infected with two-fold serial dilutions of each virus to establish a standard curve for quantification with an upper limit of 200%. […] Total well fluorescence above background was quantified with ImageJ software. For each virus, samples were quantified by nonlinear regression against the standard curve using Prism software (GraphPad Software, Inc., La Jolla, CA).
molecule,measurement,setting,value
"HD5: human alpha-defensin; synthetic, obtained from Peptides International; three disulfide bonds (PDB 1ZMP) (peptide, UniProt Q01523 20-94, looked up, Defensin-5) Defensin alpha 5: ESLQERADEATTQKQSGEDNQDLAISFAGNGLSALRTSGSQARATCYCRTGRCATRESLSGVCEISGRLYRLCCR",HD5 binding regions on capsid,[1],"HD5 difference density is also found within the central depression of the hexon trimers; also recorded: multiple binding sites for HD5 on the penton complex (penton base and fiber); also recorded: interacts with the exposed surfaces of the three major capsid proteins: hexon, penton base, and fiber; also recorded: extensive binding of HD5 to the fiber"
same,sensitivity to neutralization (infectivity),HAdV species C,sensitive
